Test results from the nanobody polyreactivity screen of Harvey et al. (2022).

Experiment: yeast display, Sf9 membrane polyspecificity reagent, FACS + sequencing; frameworks hold sequencing errors
Procedure, shortened: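 Nanobodies from a synthetic yeast display library (Saccharomyces cerevisiae BJ5465), induced 36–48 hours with galactose, were stained 1 hour at 4 °C with 10% biotinylated, detergent-solubilized Sf9 membrane reagent, enriched on streptavidin microbeads, then FACS-sorted. Anti-HA (expression) and streptavidin (reagent binding) fluorescence set low and high (top ~1%) gates. Polyreactivity labels come from the gate of origin. Genes were colony-PCR amplified, MiSeq 2 × 250 sequenced and filtered by CDR length.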

Sequence	polyreactivity (PSR sort gate)
QVQLVESGAGIVQAGGSLRLSCAASGRIFSDYTMGWYRQAPGKERELVAAIDWSGGNTYYADSVKGRFTISRDNAKNTVYLQMNSLKPEDTAVYYCNADWTYPSAEREYWGQGTQVTVSS	low polyreactivity
QVQLVESGGGLVQAGVSLRLSCAASGFIFNIYAMGWYRQAPGKERELVAAISWRGGSTYYADSVKGRFTISRDNAKNTVYLQMNSLKPEYTAVYYCDVEDVWVGVFGDYDYWGEGTQVTVSS	low polyreactivity
QVQLVESGGGLVQAGGSLRLSCAASGSTFRSYNMGWYRQAPGKERELVADINGTGGSTYYADSVKGRFTISRDNAKNTVYLQMNSLKPEDTAVYYCAADGYFRTVTSGWALRMGYWGQGTQVTVSS	high polyreactivity
QVQLVESGGGLVQAGGSLRLSCAASGRIFWYYAMGWYRQAPGKEREFVAAIDWSGGRTYYADSVKGRFTISRDNAKNTVYLQMNSLKPEDTAVYYCAARDRAGRGKSYKPYYYWGQGTQVTVSS	high polyreactivity
QVQLVESGGGLVQAGGSLRLSCAASGSTLNSYVMGWYRQAPGKERELVATIRSGSSTNYADSVKGRFTISLDNAKNTVYLQMNSLKPVDTAVYYCSRDDRLAGDYWGQGTQVTVSS	low polyreactivity
QVQLVESGGGLVQAGGSLRLSCAASGRTFLRNAMGWYRQAPGKERELVAAISSGGGRTYYADSVKGRFTISRDNAKNTVYLQMNSLKPEDTAVYYCAALYQYLGGVYEGYYWGQGTQVTVSS	high polyreactivity
QVQLVESGGGLVQAGGSLRLSCAASGIIFEGYAMGWYRQAPGKERELVAAISQSGGSTRYADSVKGRFTISRDNAKNTVYLQMNSLKPEDTAVYYCAKLSLSWDGYYQYDYWGQGTQVTVSS	low polyreactivity
QVQLVESGGGLVQAGGSLRLSCAPSGRIILRYTMGRYRQARGKERQLVAAISARTTGTYYADSVKGRFTISRDNAKNTFYLQLNSLKPEDTAVYYCAAKCKLSRVLYSWGQGTQVTVSS	low polyreactivity
QVQLVEAGGGLVQAGGSLRFSCAASGSLFRWYAMGWYRQAPGKERELVAAINRGGDSTYYADSVKGRFTISRDNAKNTVYLQMNSLKPEDTAVYYCNAVSSWKLLYSSYDSWGQGTQVTVSS	high polyreactivity
QVQLVESGGGLVQAGGSLRLSCAASGLDYYAMGWYRQAPGKERELVAAIDWSGVSTYYADSVKGRFTISRDNAKNSVYLQMNSLKPEDTAVYYCAALYDGWPRVSYGLGEYGYWGQGTQVTVSS	low polyreactivity
QVQLVESVGGLVQAGGSLRLSCAASGITFNRYAMGWYRQAPGKERELVAAITGGGSRTFYADSVKGRFTISGDNAKNTVDLQMNSLKPEDTAVYYCAKGLSTGRAYRGYDYWGQGTQVTVSS	high polyreactivity
QVQLVESGGGLVQAGGSLRLSCAASGFIFYAMGWYRQAPGKERELVAAITLSDGTTYYADSVKGRFTISRDNAKNTVYLQMNSLKPEDTAVYYCAAEYSVPYRGWDGYEYWGQGTQVTVSS	low polyreactivity
QVHLVESGGGLVQAGGSLRLSCAASGRTFKYYAMGWYRQAPGKERELVAAISSRGGSTYYADSVKGRFTISRDNAKNTVYLQMNSLKPEDTAVYYCAKGTYLSTSTVANDYWGQGTQGTVSS	high polyreactivity
QVQLVESGGGLVQAGGSLRLSCAASGRTFRGNAMGWYRQAPGKESELVAVITASGSTTYADSVKGRFTISRDNAKNTVYLQMNSLKPEDTAVYYCAKYVPWYTLWLGGTDRDYWGQGTQVTVSS	low polyreactivity
QVQLVESGGGLVQAGGSLRLSCAASGLISSINAMGWYRQAPGKERELVATITSGGSTYYADSVKGRFTISRDNAKNTVYLQMNSLKPEDTAVYYCAARSSVRAYYSWGHGTQVTVSS	high polyreactivity
QVQLVESGGGLVQAGGSLRLSCAASGITFPRNAMGWYRQAPGKERELVAAISARGGNTYYADSVKGRFTISRDNSKNNVYLQMNSLKPEDTAVYFCNALGSSYSEPSEYDYWGQGTQVTVSS	low polyreactivity
QVQLVESGGGLVQAGGSLRLSCAASGSIFEGNAMGWYRQAPGKERELVAAISTTGGITYYADSVKGRFTISRDKAKNTVYLQMNSLKPEDTAVYYCAADPSQPRIDSSNYDYWGQGTQVTVSS	low polyreactivity
QVQLVESGVGLVQAGGSLRLICAASGGTFEFYTMGRYRQAPGKERELVAVINASGDSTYYADSVKGRFTISRDNAKNTVYLQMNSLKPEDTAVYYCAADHRGEYDYWGQGTQVTGSS	low polyreactivity
QVQLVESGGGLVQAGGSLRLTCAASGITFFQYAMGWYRQAPGKERELVAAITWSGGDTYYADSVKGRFTISRDNAKITVYLQMNSLKPEDTAVYYCAAEYVVQYYVYGYTLGYDYWGQGTQVTVSS	high polyreactivity
QVQLVESGGGLVQAGGSLRLSCAASGFTFERNTMGWYRPAPGKERELVATITRRGTSTYYADSVKGRFTISRDNAKNTVYLQMNSLKPEDTAVYYCARGQYSHRSQAGMDYWGQGTQVTVSS	high polyreactivity
QVQLVESGGGLVQAGGSLRLSCAASGSNFYFYAMGWYRQAPGKERELVAGITSSGASTYADSVKGRFTISRDNEKNTVYLQMNSLKPEDTAVYYCAAYYPLRKGYGYWGQGTQVTVSS	high polyreactivity
QVQLVESGGGLVQAGGSLRLSCAASGSIFSFYTMGWYRQAPGKERELVASSTTYADSVKGRFTISRDNAKNTVYLQMNSLKPEDTAVYYCAVDYNSLRYGPLGYWGQGTQVTVSS	low polyreactivity

Sequence	polyreactivity (PSR sort gate)
QVQLVESGGGLVQAGASLRLSCAASGFTLYSYAMGWYRQAPGKERELDASISTGGSTYYADSVKGRFTISRDNAKNTVYLQMNSLKPVDTAVYYSAVDGWYYTSWSFYRRYEYWGQGTQVSVSS	high polyreactivity
QVQLVESGGGLVQAGGSLRLSCAASGSTFRGYAMGWYRQAPGKERELVAAITRSGGSTYYADSVKGRFTISRDNAKNTVYLQMNSLKPEDTAVYYCNDRAFPYYRRFDYWGQGTQVTVSS	high polyreactivity
QVQLVESVGGLVQAGGSLRLSCAASGYTFFYAMGWYRQAPGKERELVASITSAASTTYADSVKGRFTISRDNAKNTVYLQMNSLKPEDTAVYYCAASHSWWFYPGYYYWGQGTQVTVSS	high polyreactivity
QVQLVESGGGLVQAGGSLRLSCAASGSIFSVYAMGWYRQAPGKERELVAAITSGTSTYADSVKGRFTISRDNAKNTVYLQMNSLKPEDTAVYYCAAESGSPGYYYWGQGTQVTVSS	low polyreactivity
QVQLVESGGGLVQAGGSLRLSCAASGSIFYPYAMGWYRQAPGKERELVAAISYSGGSTYYADSVKGSFTISRDNAKNTVYLQMNSMKPEDTAVYYCNRRYWRRPYYKYDYWGQGTQVTVSS	high polyreactivity
QVQLVESGGCLVQAGGSLRLSCAASGSTFWGYTMGWYRQAPGKVRELVAAISSDGSTNYADSVKGRFTISRDNAKNTVYLQMNSLKPEDTAVYDCNTVYDPDTGQSDSWGQGTQVTVSS	low polyreactivity
QVQLVESGGGLVQAGGSLRLSCAASGSTFLYYAMGWYRPAPGKESELVAGISASGGSTYYADSVKGRFTISRDNAKITVYLQMNSLKPEDTAVYYCARYAGFPYTQCDYWGQGTQVTVSS	high polyreactivity
QVRLVESGGGLDQAGGSLRLSSAASGRIFNRNAMGWYRQAPGKARELVAAINRGGSTNYADSVKGRFTISRDNAKNTVYLQLNRLKPEDTAVYYCAAELLYATLWRRYSGYYYWGQGTQVTVSS	high polyreactivity
QVQLVESGGGLVQAGGSLRLSCAASGRTFYGYAMGWYRQAPGKERELVAAISKRGGSTYYADSVKGRFTISRDNAKNTVYLQMNSLKPEDTAVYYCARPYLGPYSGYDYNYWGQGTQVTVSS	high polyreactivity
QVQLVESGGGLVQAGGSLRLSCAASGSTFNFYAMGWYRQAPGKEREFVAAITSSGDSTYYADSVKGRFTISRDNAKNTVYLQLNSLKPEDTAVYYCAARLRWRYSYDYWGQGTQVTVSS	high polyreactivity
QVQLVESGGGLVQAGGSLRLSCAASGIIFGHYALGWYRQAPGKERELVAAITASSGNTYYADSVKGRFTISRDNAKNTVYLQMNSLKPEDTAVYYCAAVSYSSYRYDSWGQGTQVTVSS	high polyreactivity
QVHLVESGGGLVQAGGSLRLSSADSGRIFTTYVMGWYRQAPGQESELVAAISARGSTYYADSVKGRFTISRDNAKNTVYLQMNSLKPEDNAVYYCAAGHRLPVYYVYPRATYNYWRQGTQVTVSS	low polyreactivity
QVHLVESGVGLFQAGGSLRLSCAASGIIFRYYTMEWYIQAPGKEREVVAVITRGCSTYYADSVMGRFTISRDNAKYSVYLQMNSLKPVDTAVYFCAALRYKLPLGYWGQGTQVTVSS	high polyreactivity
QVQLVESGGGLVQAGGSLRLSCAASGRIFSYYAMGWYRQAPGKERELVASITSGGSTYADSVKGRFTISRDNAKNTVYLQMNSLKPEDTAVYYCNARKRHYYGYYYWGQGTQVTVSS	high polyreactivity
QVQLVESGGGIVQAGGSLRLSCAASGRSFPNNAMGWYRPAPGKERELLAAISSGSSTDYADSVKGRFTISRDNAKNTVSLQMNSLKPEATAVYYCNAGDYTYPGSPWPGYAYDYWGLGTQVTVSS	low polyreactivity
QVQLVESGGGLVQAGGSLRLSCAASGSTFVYYAMGWYRQAPGKERELVAAISRSGGNTYYADSVKGRFTISRDNAKNTVYLQMNSLKPEDTAVYYCAARSYGVQYYYWGQGTQVTVSS	high polyreactivity
QVQLLESGGGLVQAGGSLRLSCAASGSTFINNAMGWYRQAPGKERELVAAISGNADRTYYADSVKGRFTISRDYAKNTVYLQMISLKPEDTAVYYCNALSLLSDGAASVDQVTFDYWGQGTQVTVSS	low polyreactivity
QVQLVESGGGLVQAGGSLGLSCAASGSFFYQNAMGWYRQAPGKDREWVAAISRSGGSTYYADSVMGRFTISRDNAKISVDEQMNSLQPEDTPVYYCAARNSRQGSYSRDFWGQGTQVTVSS	high polyreactivity
QVQLVESGGGLVQAGGSLRLSCAASGFIFSYYAMGLYRQAPGKERELVAAINWTGGSTYYADSVKGRFTISRDNAKNTVYLQMNSLKPEDTAVYYCAADSHLRGRSEDYWGQGTQVTVSS	high polyreactivity
QVQLEESGGGLVQAGGSLRLSCAASGSIFDPNAMGWYRKAPGKERELVADIDSSDGSTYYADSVKGRFTISRDNAKNTVYLQMNSLKPEDTAVYYCNARYGGWVWSTYDHWGQGTQVTVSS	low polyreactivity
QVQLVESGAGLVQAGGSLRLSCAPSGSTFEDYAMGWYRQAPGKERELVAAISHIGGSTYYADSVKGRFTISRDNAKNTVYLQMNSLKPEDTAVYYCAKGGFSSKFDYWGQGTQVTVSS	low polyreactivity
